What was measured:
human CCR8 [1] = biological target: T1, human CCR8 (human, UniProt P51685 1-355); experiment: cell-based or functional assay
human CCR8 [2] = biological target: T1, human CCR8; experiment: cell-based or functional assay; remark: listed apart in the source
human CCR8 [3] = biological target: T1, human CCR8; experiment: flow cytometry on mammalian cells expressing human CCR8

T1 sequence (P51685 whole entry): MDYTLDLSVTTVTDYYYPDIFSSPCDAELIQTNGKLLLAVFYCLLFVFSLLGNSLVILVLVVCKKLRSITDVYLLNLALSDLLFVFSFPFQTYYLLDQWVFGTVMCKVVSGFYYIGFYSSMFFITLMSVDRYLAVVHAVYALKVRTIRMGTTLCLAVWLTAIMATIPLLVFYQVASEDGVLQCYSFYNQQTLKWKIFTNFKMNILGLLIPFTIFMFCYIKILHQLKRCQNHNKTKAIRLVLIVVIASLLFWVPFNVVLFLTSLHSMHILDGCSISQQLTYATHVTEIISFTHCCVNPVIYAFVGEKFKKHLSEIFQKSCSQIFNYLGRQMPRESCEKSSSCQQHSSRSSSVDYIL

Row | Binder | IC50 antagonism of EC80 Human CCL1 Gα15/16 Biosensor (human CCR8 [1]) [nM] | IC50 antagonism of EC80 Human CCL1 Gαz Biosensor (human CCR8 [1]) [nM] | EC50 of hCCR8-specific internalization (human CCR8 [2]) [µg/mL] | MFI Fold over Background (human CCR8 [3]) [fold over background]
1 | ADI-40306 (antibody, V domains shown) VH: QVQLVESGGGVVQPGRSLRLSCAASGFTFSSYGMHWVRQAPGKGLEWVAVISYDGSNKYYAFSVKGRFTISRDNSKNTLYLQMNSLRVEDTAVYYCARVRRIAGRAGYGMDVWGQGTTVTVSS VL: not shown | 29.8 | 18.9 | – | –
2 | ADI-40352 (antibody, V domains shown) VH: QLQLQESGPGLVKPSETLSLTCTVSGGSISSSSYAWGWIRQPPGKRLEWIGSIYYTGSTYYNPSLKSRVTISVDTSKNQFSLKLSSVTAADTAVYYCLRGHRRDYIAFDIWGQGTMVTVSS VL: DIQMTQSPSSLSASVGDRVTITCRASQSISSYLNWYQQKPGKAPKLLIYAASSLQSGVPSRFSGSGSGTDFTLTISSLQPEDFATYYCQQSHNLPTFGGGTKVEIK | 0.439 | 2.39 | 5.7 | –
3 | ADI-35281 (antibody, V domains shown, Produced as IgG) VH: EVKLEQSGGGLVQPKGSLKLSCVASGFTFNAYAMNWVRQAPGQGLEWVARIRSKSNNYATYYAASVKDRFTISRDDSQSILYLQMNNLKTEDTAMYYCVRQSYGNSNYAMDYWGQGTTVTVSS VL: DIQLTQSPPSVPVTPGESVSISCRSSKSLLHSNGNTYLYWFLQRPGQSPQLLIYRKSNLASGVPDRFSGSGSGTAFTLRISRVEAEDVGVYYCMQHLEYPFTFGGGTKLEIK | – | – | – | 336

Other lines, results leading:

Row | IC50 antagonism of EC80 Human CCL1 Gα15/16 Biosensor (human CCR8 [1]) [nM] | IC50 antagonism of EC80 Human CCL1 Gαz Biosensor (human CCR8 [1]) [nM] | EC50 of hCCR8-specific internalization (human CCR8 [2]) [µg/mL] | MFI Fold over Background (human CCR8 [3]) [fold over background] | Binder
4 | 1.78 | 1.14 | 2.8 | – | ADI-40360 (antibody, V domains shown) VH: QLQLQESGPGLVKPSETLSLTCTVSGGSISSSSYAWGWIRQPPGKRLEWIGSIYYTGSTYYNPSLKSRVTISVDTSKNQFSLKLSSVTAADTAVYYCVRGHRRDYIAFDIWGQGTMVTVSS VL: DIQMTQSPSSLSASVGDRVTITCRASQSISSYLNWYQQKPGKAPKLLIYAASSLQSGVPSRFSGSGSGTDFTLTISSLQPEDFATYYCQQSHNLPTFGGGTKVEIK
5 | 1.26 | 1.79 | – | – | ADI-46663 (antibody, V domains shown) VH: EVQLVESGGGLVQPGGSLRLSCAASGFTFNAYAMNWVRQAPGKGLEWVARIRSKSNNYATYYADSVKDRFTISRDDSKNSLYLQMNSLKTEDTAVYYCVRQSYGNSNYAMDYWGQGTTVTVSS VL: DIVMTQSPLSLPVTPGEPASISCRSSKSLLHSNGNTYLYWYLQKPGQSPQLLIYRMSNLASGVPDRFSGSGSGTDFTLKISRVEAEDVGVYYCMQHLEYPFTFGGGTKVEIK
6 | 4.61 | 5.46 | 14.3 | – | ADI-40327 (antibody, V domains shown) VH: QVQLQESGPGLVKPSETLSLTCAVSGYSISSGYYWGWIRQPPGKGLEWIGSIYHSGNTYYRPSLKSRVTISVDTSKNQFSLKLSSVTAADTAVYYCARGKGGSWTAFGPWGQGTLVTVSS VL: DIQMTQSPSSLSASVGDRVTITCRASQSISSFLNWYQQKPGKAPKLLISAASSLQSGVPSRFSGSGSGTDFTLTISSLQPEDFATYYCQQGHSTPPTFGGGTKVEIK

— patent US20250019449A1 (Memorial Sloan Kettering, published 2025)
